Test results reported in patent publication US7354722 (SIGNAL PHARMACEUTICALS, dated 2008).

Target: T1, Xenopus Smurf1 (Xenopus, UniProt Q9PUN2 1-731)
T1 construct: Used as a yeast two-hybrid fusion and as in vitro translated 35S-Met-labelled protein; also called Xsmurf; 35S-labelled Smurf1
Assay: in vitro co-immunoprecipitation: 35S-Smurf1 on FLAG-Smad bound to anti-FLAG beads
Procedure: (A) Smurf1 interacts with Smad1. Yeast two-hybrid assays were done on yeast co-transformed with combinations of Xenopus Smurf1 (Xsmurf) together with Smad1, Smad2, lamin or vector alone. […] Co-immunoprecipitation on in vitro translated proteins was done by incubating 35S-labelled Smurf1 together with in vitro translated, 35S-Met trace-labelled Flag-tagged Smad1 (35S-F/Smad1), Smad2 (35S-F/Smad2) or Smad4 (35S-F/Smad4) immobilized on anti-Flag affinity gel matrices. After washing, bound proteins were eluted and analyzed by SDS-PAGE (right panel).

T1 sequence (Q9PUN2 whole entry, the tested form may be a part): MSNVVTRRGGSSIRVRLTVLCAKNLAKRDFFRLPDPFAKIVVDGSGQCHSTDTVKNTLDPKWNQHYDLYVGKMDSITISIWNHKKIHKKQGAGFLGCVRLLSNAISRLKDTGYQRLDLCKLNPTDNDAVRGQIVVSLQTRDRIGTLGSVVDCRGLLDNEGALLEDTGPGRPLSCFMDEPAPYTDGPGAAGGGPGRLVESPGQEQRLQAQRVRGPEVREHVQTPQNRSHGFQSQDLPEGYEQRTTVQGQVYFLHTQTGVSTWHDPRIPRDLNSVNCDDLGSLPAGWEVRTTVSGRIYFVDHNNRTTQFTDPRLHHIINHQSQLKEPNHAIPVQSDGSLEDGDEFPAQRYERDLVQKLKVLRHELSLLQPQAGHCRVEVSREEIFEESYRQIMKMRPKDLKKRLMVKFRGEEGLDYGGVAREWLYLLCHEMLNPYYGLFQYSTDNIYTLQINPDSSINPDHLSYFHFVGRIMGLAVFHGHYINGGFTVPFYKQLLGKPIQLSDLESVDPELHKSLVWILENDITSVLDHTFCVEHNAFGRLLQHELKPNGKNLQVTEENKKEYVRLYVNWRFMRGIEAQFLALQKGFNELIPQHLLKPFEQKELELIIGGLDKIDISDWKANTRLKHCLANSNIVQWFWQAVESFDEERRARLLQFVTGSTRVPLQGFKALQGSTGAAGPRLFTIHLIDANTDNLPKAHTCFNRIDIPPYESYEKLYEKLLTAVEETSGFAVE

Row | binding result | Binder
1 | no binding | human Smad2, FLAG-tagged at the C-terminus, in vitro translated (other, UniProt Q15796 1-467, looked up, also called 35S-F/Smad2; not shown: C-terminal FLAG tag) MSSILPFTPPVVKRLLGWKKSAGGSGGAGGGEQNGQEEKWCEKAVKSLVKKLKKTGRLDELEKAITTQNCNTKCVTIPSTCSEIWGLSTPNTIDQWDTTGLYSFSEQTRSLDGRLQVSHRKGLPHVIYCRLWRWPDLHSHHELKAIENCEYAFNLKKDEVCVNPYHYQRVETPVLPPVLVPRHTEILTELPPLDDYTHSIPENTNFPAGIEPQSNYIPETPPPGYISEDGETSDQQLNQSMDTGSPAELSPTTLSPVNHSLDLQPVTYSEPAFWCSIAYYELNQRVGETFHASQPSLTVDGFTDPSNSERFCLGLLSNVNRNATVEMTRRHIGRGVRLYYIGGEVFAECLSDSAIFVQSPNCNQRYGWHPATVCKIPPGCNLKIFNNQEFAALLAQSVNQGFEAVYQLTRMCTIRMSFVKGWGAEYRRQTVTSTPCWIELHLNGPLQWLDKVLTQMGSPSVRCSSMS
2 | no binding | mouse Smad4, FLAG-tagged at the C-terminus, in vitro translated (other, UniProt P97471 1-551, looked up, also called 35S-F/Smad4; not shown: C-terminal FLAG tag) MDNMSITNTPTSNDACLSIVHSLMCHRQGGESETFAKRAIESLVKKLKEKKDELDSLITAITTNGAHPSKCVTIQRTLDGRLQVAGRKGFPHVIYARLWRWPDLHKNELKHVKYCQYAFDLKCDSVCVNPYHYERVVSPGIDLSGLTLQSNAPSMLVKDEYVHDFEGQPSLPTEGHSIQTIQHPPSNRASTETYSAPALLAPAESNATSTTNFPNIPVASTSQPASILAGSHSEGLLQIASGPQPGQQQNGFTAQPATYHHNSTTTWTGSRTAPYTPNLPHHQNGHLQHHPPMPPHPGHYWPVHNELAFQPPISNHPAPEYWCSIAYFEMDVQVGETFKVPSSCPVVTVDGYVDPSGGDRFCLGQLSNVHRTEAIERARLHIGKGVQLECKGEGDVWVRCLSDHAVFVQSYYLDREAGRAPGDAVHKIYPSAYIKVFDLRQCHRQMQQQAATAQAAAAAQAAAVAGNIPGPGSVGGIAPAISLSAAAGIGVDDLRRLCILRMSFVKGWGPDYPRQSIKETPCWIEIHLHRALQLLDEVLHTMPIADPQPLD
